Data taken from patent US20250320281A1.

Legend:
[1] = target: HIV-1 92RW020 Env (pseudovirus) (HIV-1); experiment: cell-based or functional assay
[2] = target: HIV-1 92TH021 Env (pseudovirus) (HIV-1); experiment: cell-based or functional assay
[3] = target: HIV-1 92UG005 Env (pseudovirus) (HIV-1); experiment: cell-based or functional assay
[4] = target: HIV-1 92UG024 Env (pseudovirus) (HIV-1); experiment: cell-based or functional assay
[5] = target: HIV-1 93IN905 Env (pseudovirus) (HIV-1); experiment: cell-based or functional assay
[6] = target: HIV-1 94UG103 Env (pseudovirus) (HIV-1); experiment: cell-based or functional assay
[7] = target: HIV-1 APV6 Env (pseudovirus) (HIV-1); experiment: cell-based or functional assay
[8] = target: HIV-1 CMU02 Env (pseudovirus) (HIV-1); experiment: cell-based or functional assay
[9] = target: HIV-1 Env of isolate MGRM-C-001 (HIV-1); experiment: cell-based or functional assay
[10] = target: HIV-1 Env of isolate MGRM-C-002 (HIV-1); experiment: cell-based or functional assay
[11] = target: HIV-1 Env of isolate MGRM-C-004 (HIV-1); experiment: cell-based or functional assay
[12] = target: HIV-1 Env of isolate MGRM-C-005 (HIV-1); experiment: cell-based or functional assay
[13] = target: HIV-1 Env of isolate MGRM-C-006 (HIV-1); experiment: cell-based or functional assay
[14] = target: HIV-1 Env of isolate MGRM-C-007 (HIV-1); experiment: cell-based or functional assay
[15] = target: HIV-1 Env of isolate MGRM-C-008 (HIV-1); experiment: cell-based or functional assay
[16] = target: HIV-1 Env of isolate MGRM-C-009 (HIV-1); experiment: cell-based or functional assay
[17] = target: HIV-1 Env of isolate MGRM-C-010 (HIV-1); experiment: cell-based or functional assay
[18] = target: HIV-1 Env of isolate MGRM-C-012 (HIV-1); experiment: cell-based or functional assay
[19] = target: HIV-1 Env of isolate MGRM-C-013 (HIV-1); experiment: cell-based or functional assay
[20] = target: HIV-1 Env of isolate MGRM-C-014 (HIV-1); experiment: cell-based or functional assay
[21] = target: HIV-1 Env of isolate MGRM-C-015 (HIV-1); experiment: cell-based or functional assay
[22] = target: HIV-1 Env of isolate MGRM-C-017 (HIV-1); experiment: cell-based or functional assay
[23] = target: HIV-1 Env of isolate MGRM-C-019 (HIV-1); experiment: cell-based or functional assay
[24] = target: HIV-1 Env of isolate MGRM-C-020 (HIV-1); experiment: cell-based or functional assay
[25] = target: HIV-1 Env of isolate MGRM-C-022 (HIV-1); experiment: cell-based or functional assay
[26] = target: HIV-1 Env of isolate MGRM-C-023 (HIV-1); experiment: cell-based or functional assay
[27] = target: HIV-1 Env of isolate MGRM-C-024 (HIV-1); experiment: cell-based or functional assay
[28] = target: HIV-1 Env of isolate MGRM-C-025 (HIV-1); experiment: cell-based or functional assay
[29] = target: HIV-1 Env of pseudovirus isolate MGRM-G-001 (HIV-1); experiment: cell-based or functional assay
[30] = target: HIV-1 Env of pseudovirus isolate MGRM-G-004 (HIV-1); experiment: cell-based or functional assay
[31] = target: HIV-1 Env of pseudovirus isolate MGRM-G-006 (HIV-1); experiment: cell-based or functional assay
[32] = target: HIV-1 Env of pseudovirus isolate MGRM-G-009 (HIV-1); experiment: cell-based or functional assay
[33] = target: HIV-1 Env of pseudovirus isolate MGRM-G-011 (HIV-1); experiment: cell-based or functional assay
[34] = target: HIV-1 Env of pseudovirus isolate MGRM-G-013 (HIV-1); experiment: cell-based or functional assay
[35] = target: HIV-1 Env of pseudovirus isolate MGRM-G-014 (HIV-1); experiment: cell-based or functional assay
[36] = target: HIV-1 Env of pseudovirus isolate MGRM-G-015 (HIV-1); experiment: cell-based or functional assay
[37] = target: HIV-1 Env of pseudovirus isolate MGRM-G-016 (HIV-1); experiment: cell-based or functional assay
[38] = target: HIV-1 Env of pseudovirus isolate MGRM-G-017 (HIV-1); experiment: cell-based or functional assay
[39] = target: HIV-1 Env of pseudovirus isolate MGRM-G-019 (HIV-1); experiment: cell-based or functional assay
[40] = target: HIV-1 Env of pseudovirus isolate MGRM-G-027 (HIV-1); experiment: cell-based or functional assay
[41] = target: HIV-1 JRCSF Env (pseudovirus) (HIV-1) (UniProt P20871); experiment: cell-based or functional assay
[42] = target: HIV-1 MGRM-A-010 Env (pseudovirus) (HIV-1); experiment: cell-based or functional assay
[43] = target: HIV-1 MGRM-C-026 Env (pseudovirus) (HIV-1); experiment: cell-based or functional assay
[44] = target: HIV-1 MGRM-C-027 Env (pseudovirus) (HIV-1); experiment: cell-based or functional assay
[45] = target: HIV-1 MGRM-C-028 Env (pseudovirus) (HIV-1); experiment: cell-based or functional assay
[46] = target: HIV-1 MGRM-D-018 Env (pseudovirus) (HIV-1); experiment: cell-based or functional assay
[47] = target: HIV-1 NL43 Env (pseudovirus) (HIV-1); experiment: cell-based or functional assay
[48] = target: envelope of aMLV pseudovirus (negative control); experiment: cell-based or functional assay
WT JR-FL gp120 (HIV-1) = experiment: ELISA, antigen-coated wells

In the case of 5123_A06 (PGT-125) (antibody), the neutralization IC50 (pseudovirus) [1] is reported as 0.0028 mg/L, the neutralization IC50 (pseudovirus) [2] is reported as 0.0066 mg/L and the neutralization IC50 (pseudovirus) [3] is reported as over 10 mg/L. For the same substance, the neutralization IC50 (pseudovirus) [4] was over 10 mg/L, the neutralization IC50 (pseudovirus) [5] was 0.0137 mg/L and the neutralization IC50 (pseudovirus) [6] was 0.0124 mg/L. It also gave a neutralization IC50 (pseudovirus) [7] of 0.0359 mg/L, a neutralization IC50 (pseudovirus) [8] of over 10 mg/L and a neutralization IC50 [9] of over 50 mg/L. It also gave a neutralization IC50 [10] of 0.008 mg/L, a neutralization IC50 [11] of 1.82 mg/L and a neutralization IC50 [12] of 2.09 mg/L. The neutralization IC50 [13] was 0.015 mg/L, the neutralization IC50 [14] was over 50 mg/L and the neutralization IC50 [15] was over 50 mg/L. It also gave a neutralization IC50 [16] of over 50 mg/L, a neutralization IC50 [17] of over 50 mg/L and a neutralization IC50 [18] of over 50 mg/L. For the same substance, the neutralization IC50 [19] was over 50 mg/L, the neutralization IC50 [20] was over 50 mg/L and the neutralization IC50 [21] was over 50 mg/L. It also gave a neutralization IC50 [22] of 2.36 mg/L, a neutralization IC50 [23] of 0.13 mg/L and a neutralization IC50 [24] of over 50 mg/L. For the same substance, the neutralization IC50 [25] was 1.23 mg/L, the neutralization IC50 [26] was 1.31 mg/L and the neutralization IC50 [27] was over 50 mg/L. The neutralization IC50 [28] was 42.5 mg/L, the IC50 (µg/mL), pseudovirus neutralization [29] was 0.033 µg/mL and the IC50 (µg/mL), pseudovirus neutralization [30] was over 50 µg/mL. It also gave an IC50 (µg/mL), pseudovirus neutralization [31] of over 50 µg/mL, an IC50 (µg/mL), pseudovirus neutralization [32] of over 50 µg/mL and an IC50 (µg/mL), pseudovirus neutralization [33] of over 50 µg/mL. It also gave an IC50 (µg/mL), pseudovirus neutralization [34] of over 50 µg/mL, an IC50 (µg/mL), pseudovirus neutralization [35] of 0.007 µg/mL and an IC50 (µg/mL), pseudovirus neutralization [36] of over 50 µg/mL. For the same substance, the IC50 (µg/mL), pseudovirus neutralization [37] was over 50 µg/mL, the IC50 (µg/mL), pseudovirus neutralization [38] was over 50 µg/mL and the IC50 (µg/mL), pseudovirus neutralization [39] was over 50 µg/mL. It also gave an IC50 (µg/mL), pseudovirus neutralization [40] of 34.4 µg/mL, a neutralization IC50 (pseudovirus) [41] of 0.006 mg/L and a neutralization IC50 (pseudovirus) [42] of 0.0055 mg/L. The neutralization IC50 (pseudovirus) [43] was 0.0106 mg/L, the neutralization IC50 (pseudovirus) [44] was over 10 mg/L and the neutralization IC50 (pseudovirus) [45] was 5.78 mg/L. It also gave a neutralization IC50 (pseudovirus) [46] of 0.0382 mg/L, a neutralization IC50 (pseudovirus) [47] of over 10 mg/L and an IC50 (µg/mL), pseudovirus neutralization [48] of over 50 µg/mL. The EC50 (WT JR-FL gp120 (HIV-1)) was 0.2 mg/L.
